Data on eight molecules can be found in EP4386000 (dated 2024).

One may read the Kd as the constant that tells how readily two partners part at equilibrium. Low values mean tighter binding, high ones weaker binding. Broadly, the EC50 is the concentration that produces a half-maximal response. The low end stands for a more potent agent, the high end for a less potent agent.

One assay concerns the target T1, mouse CD25-his (mouse, UniProt P01590).
T1 chain: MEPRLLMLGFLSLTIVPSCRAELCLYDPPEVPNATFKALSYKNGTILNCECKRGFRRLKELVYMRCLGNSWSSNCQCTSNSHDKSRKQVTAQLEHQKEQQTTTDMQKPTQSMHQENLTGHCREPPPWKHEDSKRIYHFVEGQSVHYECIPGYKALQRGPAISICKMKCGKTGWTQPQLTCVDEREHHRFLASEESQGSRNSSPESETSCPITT
The assay can be described thus: ELISA. (In general: An ELISA detects its analyte on a solid surface through an enzyme-linked reagent.)

The target of assay [1] is T2, human CD25-his (human, UniProt P01589).
T2 chain: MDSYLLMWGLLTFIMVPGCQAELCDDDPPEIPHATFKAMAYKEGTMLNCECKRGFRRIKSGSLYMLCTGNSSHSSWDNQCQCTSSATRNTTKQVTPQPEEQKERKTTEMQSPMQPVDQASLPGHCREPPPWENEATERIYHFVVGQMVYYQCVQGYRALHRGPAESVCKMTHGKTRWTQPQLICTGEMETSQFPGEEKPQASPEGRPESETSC
Put plainly: SPR, 25C. For orientation: SPR reads the build-up and loss of mass on a sensor chip optically.

The target in assay [2] is T3, human CD25 on CHO-K1 cells (human, UniProt P01589).
T3 chain: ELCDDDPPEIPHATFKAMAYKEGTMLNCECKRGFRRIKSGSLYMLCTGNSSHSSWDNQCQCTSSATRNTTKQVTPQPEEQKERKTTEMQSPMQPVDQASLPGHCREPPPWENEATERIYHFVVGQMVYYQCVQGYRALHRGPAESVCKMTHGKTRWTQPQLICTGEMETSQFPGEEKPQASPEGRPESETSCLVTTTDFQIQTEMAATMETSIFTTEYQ
The assay can be described thus: FACS. Background: Flow cytometry measures light scatter and fluorescence of single cells or particles in a stream.

The target in assay [3] is T2, human CD25-his. The assay can be described thus: ELISA.

B1: 2046-36H2L1 (2046-36ix) (antibody, V domains shown)
VH: QIQLVQSGPELKKPGETVRISCKASGYTFTTAGMQWVQKMPGKGLKWIGWINTHSGVPKYAEDFKGRFAFSLETSASTAYLQISNLKNEDTATYFCASDYAFGYWGQGTLVTVSA
VL: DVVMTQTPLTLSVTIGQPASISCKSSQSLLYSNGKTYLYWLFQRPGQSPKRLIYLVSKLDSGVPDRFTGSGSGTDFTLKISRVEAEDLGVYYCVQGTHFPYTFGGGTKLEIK
Regarding B1, in the assay with mouse CD25-his, the binding result is listed as “no binding”.

B2: 2047-3H8L2 (2047-3ix) (antibody, V domains shown)
VH: QVQLKQSGAELVKPGASVKMSCKTSGYTFTDYVISWVKQRTGQGLEWIGEIYPGSGSTYYNEKFKGKATLTADISSNTAYMQLSSLTSEDSAVYFCASINFDYWGHGTTLTVSS
VL: DIVMTQSPATLSVTPGDRVSLSCRASQSISDYLHWYQQKSHESPRLLIKYASQSISGIPSRFSGSGSGSDFTLSINSVEPEDVGVYYCQNGHSFPYTFGGGTKLEIK
For B2, the binding result with mouse CD25-his is “no binding”.

B3: 2046-24H2L1 (2046-24ix) (antibody, V domains shown)
VH: DVQLQESGPGLVKPSQSLSLTCTVTGYSITSDYAWNWIRQFPGNKLEWMGYISYGGTTIYNPSLKSRISITRDTSKNQFFLQLNSVTTEDTATYYCARWLLQNYYAMDYWGQGTSVTVSS
VL: DVVMTQTPLSLPVSLGDQASISCRSSQSLVHSNGNTYLHWYLQKPGQSPKVLIYKVSNRFSGVPDRFSGSGSGTDFTLKISRVEAEDLGVYFCSQNTHVPLTFGAGTKLELK
As to B3, the binding result with mouse CD25-his is “no binding”.

B4: 2046-111H2L1 (2046-111ix) (antibody, V domains shown)
VH: DVQLQESGPGLVKPSQSLSLTCTVTGHSITSDYAWNWIRQFPGNKLEWMGYISYSGSTIYNPSLKSRISITRDTSKNQFFLQLNSVTTEDTATYYCARWLLQNYYAMDYWGQGTSVTVSS
VL: DVVMTQTPLSLPVSLGDQASISCRSSQSLVHSNGNTYLHWYLRKPGQSPKLLIYKVSNRFSGVPDRFSGSGSGTDFTLKISRVEAEDLGVYFCSQSTHVPLTFGAGTKLELK
In the case of B4, in the assay with mouse CD25-his, the binding result was “no binding”.

B5: 2046-2H1L1 (2046-2ix) (antibody, V domains shown)
VH: DVQLQESGPGLVKPSQSLSLTCTVTGYSITSDYAWNWIRHFPGNKLEWMGYITYSGSTVYNPSLKSRISITRDTSKNHFFLQLNSVTTEDTATYYCARWLLQIYYAMDYWGQGTSVTVSS
VL: DVVMTQTPLSLPVSLGDQASISCRSSQSLVHSNGNTYLHWYLQKPGQSPKLLIYKVSNRFSGVPDRFSGSGSGTDFTLKISRVEAEDLGVYFCSQSTHVPLTFGAGTKLELK
In the case of B5, in the assay with mouse CD25-his, the binding result is “no binding”.

B6: 2046-18H1L1 (2046-18ix) (antibody, V domains shown)
VH: DVQLQESGPGLVKPSQSLSLTCTVTGYSITSDYAWNWIRQFPGNKLEWMGYISYSGITIYNPSLKSRISITRDTSKNQFFLQLNSVTTEDTATYYCARWLLQIYYAMDYWGQGTSVTVSS
VL: DVVMTQTPLSLPVSLGDQASISCSSSQSLVHSNGNTYLHWYLHKPGQSPKLLIYKVSNRFSGVPDRFSGSGSGTDFTLKISRVEAEDLGVYFCSQSTHVPLTFGAGTKLELK
As to B6, in the assay with mouse CD25-his, the binding result was “no binding”.

B7: 2046-61H1L2 (2046-61ix) (antibody)
chain 1: DVQLQESGPGLVKPSQSLSLTCTVTGYSITSDYAWNWIRQFPGNKLEWMGYISYSGGTIYNPSLKSRISITRDTSKNQFFLQLNSVTTEDTATYYCARWLLQNYYAMDYWGQGTSVTVSS
chain 2: DVVMTQTPLSLPVSLGDQASISCRSSQSLVHSNGNTYLHWNLQKPGQSPKLLIYKVSNRFSGVPDRFSGSGSGTDFTLKISRVEAEDLGVYFCSQSTHVPLTFSAGTKLELK
In the case of B7, binding in the assay with human CD25-his [1] was characterised by a dissociation constant (Kd) of 9.44 nM. Moreover, the values for the EC50 (in assay [2]; with human CD25-his [3]) were 0.00114 µg/mL and 0.144 µg/mL, respectively. Further, in the assay with mouse CD25-his, the binding result is given as “no binding”.

B8: 2047-10H1L2 (2047-10ix) (antibody, V domains shown)
VH: QVQLQQSGPELVRPGVSVKISCKGSGYTFTDYAMHWVKQSHAKSLEWIGVISTYNGNTNYNQKFKGKATMTVDKSSSTAYMELARLTSEDSAIYYCARSYGNYPFDYWGQGTTLTVSS
VL: DIKMTQSPSSMYASLGERVTITCKASQDINSYLSWFQQKPGKSPKTLIYRANRLVDGVPSRFSGSGSGQDYSLTISSLEYEDMGIYYCLQYDEFPYTFGGGTKLEIK
For the molecule B8, in the assay with mouse CD25-his, the binding result was “no binding”.
